Substitutions are numbered along the chain they refer to.
B1: m906 anti-CD56 Fab (Fab, V domains shown)
VH: EVQLVQSGAEVKKPGSSVKVSCKASGGTFTGYYMHWVRQAPGQGLEWMGWINPNSGGTNYAQKFQGRVTMTRDTSISTAYMELSRLRSDDTAVYYCARDLSSGYSGYFDYWGQGTLVTVSS
VL: DVVMTQSPLSLPVTPGEPASISCRSSQSLLHSNGYNFLDWYLQKPGQSPQLLIYLGSNRASGVPDRFSGSGSGTDFTLKISRVEADDVGVYYCMQSLQTPWTFGHGTKVEIKR
notes: Human Fab from light chain shuffling of a phage display clone; also called Fab46-19
B2: m905 anti-CD56 Fab (Fab, V domains shown)
VH: B1 VH
VL: B1 VL with F37Y, D39N, A85G, D86E, V90D, S96A, T99S, W101F, H105Q, V109L
notes: Human Fab from light chain shuffling of a phage display clone; also called Fab46-8
B3: m904 anti-CD56 Fab (Fab, V domains shown)
VH: B1 VH
VL: not shown
notes: Human Fab from light chain shuffling of a phage display clone; also called Fab46-H3
B4: m903 anti-CD56 Fab (Fab, V domains shown)
VH: B1 VH
VL: not shown
notes: Human Fab from light chain shuffling of a phage display clone; also called Fab46-E5

Target: T1, human CD56 (human, UniProt P13591 20-718, limits assumed)
T1 construct: also called neural cell adhesion molecule
Assay: Biacore (surface plasmon resonance), Fab
Description: CD56 Fab selection: CD56-binding Fabs were selected with phage display technology in two steps, as previously described (Feng, et al. A novel human monoclonal antibody that binds with high affinity to mesothelin-expressing cells and kills them by antibody-dependent cell-mediated cytotoxicity. Mol Cancer Ther. 8(5):1113-1118 (2009)). Firstly, CD56 Fabs were identified by panning and screening of a large naïve human antibody library through multiple rounds of binding and amplification. In the second step, the selected clone with the best in vitro and in vivo binding property was affinity matured through a light chain shuffling process, where the VH of the clone was combined with the VL repertoire from the original library. The sub-library was further panned and screened with CD56 to obtain Fab clones with the same epitope but different affinities. Binding of the Fabs was confirmed with ELISA and affinities estimated with Surface Plasmon Resonance method on a Biacore Processing unit X100.

Row | Binder | Kd [nM]
1 | B1 | 4.49
2 | B2 | 9.17
3 | B3 | 90.9
4 | B4 | 236

— patent publication US20180230214A1 (Memorial Sloan Kettering, published 2018)
